The target of assay [1] is peptidase domain (PD) of Pipistrellus abramus angiotensin-converting enzyme 2 (ACE2) (Pipistrellus abramus) (UniProt C7ECT9). Briefly: BLI. Background: BLI is a label-free optical method that tracks binding on a fibre tip over time.
In assay [2] the target is peptidase domain (PD) of Pitta sordida ACE2 (Pitta sordida). Briefly: BLI.

As to “RBD of BtPa-BetaCoV/GD2013 (GenBank accession: AIA62343.1) (domain or fragment)”, the equilibrium dissociation constant (Kd) – broadly, the free concentration of one partner at which half of the binding sites on the other are occupied at equilibrium, for simple one-to-one binding – in assay [1] was determined as 23.4 nM; in assay [2], 138 nM.

These data come from article PMC12678408.
